# Test results as given in patent US6528270.
# Target: BCR-ABL kinase available in the cell (the BCR-ABL expressing cells)
# Experiment: 35S-methionine labelling, immunoprecipitation with anti-ABL or anti-GRB-2 antibodies
substance,measurement,value
GRB-2 (form and cells not named in the sentence) (from UniProt P62993 1-217),percent of the BCR-ABL kinase available in the cell complexed with GRB-2,50 to 90%
